According to US20260116991A1:
Residue numbers refer to the chain shown, from its start.

B1: F1.115.8 human-murine chimeric antibody (antibody, human IgG1, kappa, V domains shown)
VH: EVQLQQSGPELVKPGASVKMSCKASGYTFTEYYMHWVKQSHGKSLEWIGYIYPNNGGNGYNQKFKGKATLTVDKSSSTAYMGLRSLTSEDSAVYYCVRGYYSNWYFDVWGTGTTVTVSS
VL: DVLMTQTPLSLPVSLGDQASISCRSSQSIVHSNGKTYLEWYLQKPGQSPKLLIYKVSNRFSGVPDRFSGSGSGTDFTLKISRVEAEDLGVYYCFQGSHVPFTFGSGTKLEIKR
B2: F1.57.21 human-murine chimeric antibody (antibody, human IgG1, kappa, V domains shown)
VH: QVQLQQSGAELARPGASVKLSCKASGYTFTSYGISWVKQITGQGLEWIGEIYPRSESTYYNEKFKGKATLTADKSSSTAYMELRSLTSEDSAVYFCARDYGNIYSFAYWGQGTLVTVSA
VL: DIQMTQSPASLSASVGETVTITCRTSENIYSYLAWYQQKQGKSPQLLVYNAKTLAEGVPSRFSGSGSGTQFSLKINSLQPEDFGSYYCQHHYGTPLTFGAGTKLELKR
B3: F1.73.9 human-murine chimeric antibody (antibody, human IgG1, kappa, V domains shown)
VH: QVQLKQSGAELVRPGASVKLSCKASGYTFTDYYINWVKQRPGQGLEWIARIYPGSGNTYYNEKFKGKATLTAEKSSSTAYMQFSSLTSEDSAVYFCACSTYYTMDYWGQGTSVTVSS
VL: QIVLTQSPAIMSASLGERVTMTCTASSGVSSSYLHWYQQKPGSSPKLWIYTTSNLASGVPARFSGSGSGTSYSLTISSMEAEDAATYYCHQYHRSPYTFGGGTKLEIKR
B4: F1.120.16 human-murine chimeric antibody (antibody, human IgG1, kappa, V domains shown)
VH: EFQLQQSGPELVKPGASVKISCKASGYSFTDYNMNWVKQSNGKSLEWIGLIHPKFSVTSYNRKFKGKATLTVDQSSSTAYMQLNSLTSEDSAVYYCARWAGDYFDYWGQGTTLTVSS
VL: DIVLTQSPATLSVTPGDSVSLSCRASQSISNNLHWYQQKSHESPRLLIKYASQSISGIPSRFSGSGSGTDFTLTINSVETEDFGMYFCQQSNSWPQTFGGGTKLEIKR
B5: hAb006LH3L1 (antibody, human IgG1, V domains shown)
VH: EVQLVQSGAEVKKPGSSVKVSCKASGYTFTDYEIHWVRQAPGQGLEWMGAIDPKTGNTAYNQKFMGRVTLTADKSTSTAYMELSSLRSEDTAVYYCTRYFSFAYWGQGTLVTVSS
VL: DIVMTQTPLSLPVTPGEPASISCRSSQTFVHSNGNTYLQWYLQKPGQSPQLLIYKVSNRFSGVPDRFSGSGSGTDFTLKISRVEAEDVGVYYCFQGSHVPYTFGQGTKLEIK
B6: hAb007LH2L1 (antibody, human IgG1, V domains shown)
VH: B5 VH with I34M, A50T, K54E, M65K, L70I, Y99P, F100Y, F102L, A103T
VL: B5 VL with T28S, N35D
B7: hAb007LH3L1b (antibody, human IgG1, V domains shown)
VH: B5 VH with I34M, A50T, K54E, M65K, Y99P, F100Y, F102L, A103T
VL: B5 VL with T28S, G34R, N35D
B8: hAb007LH3L1 (antibody, human IgG1, V domains shown)
VH: B5 VH with I34M, A50T, K54E, M65K, Y99P, F100Y, F102L, A103T
VL: B5 VL with T28S, N35D

Biological target: murine GPC3-his protein (Sino Biological, Cat. No. 50989-M08B) (murine) (UniProt Q8CFZ4)
Test: ELISA, coated murine GPC3-His

Sequence of murine GPC3-his protein (Sino Biological, Cat. No. 50989-M08B) (murine) (Q8CFZ4 25-558 limits assumed): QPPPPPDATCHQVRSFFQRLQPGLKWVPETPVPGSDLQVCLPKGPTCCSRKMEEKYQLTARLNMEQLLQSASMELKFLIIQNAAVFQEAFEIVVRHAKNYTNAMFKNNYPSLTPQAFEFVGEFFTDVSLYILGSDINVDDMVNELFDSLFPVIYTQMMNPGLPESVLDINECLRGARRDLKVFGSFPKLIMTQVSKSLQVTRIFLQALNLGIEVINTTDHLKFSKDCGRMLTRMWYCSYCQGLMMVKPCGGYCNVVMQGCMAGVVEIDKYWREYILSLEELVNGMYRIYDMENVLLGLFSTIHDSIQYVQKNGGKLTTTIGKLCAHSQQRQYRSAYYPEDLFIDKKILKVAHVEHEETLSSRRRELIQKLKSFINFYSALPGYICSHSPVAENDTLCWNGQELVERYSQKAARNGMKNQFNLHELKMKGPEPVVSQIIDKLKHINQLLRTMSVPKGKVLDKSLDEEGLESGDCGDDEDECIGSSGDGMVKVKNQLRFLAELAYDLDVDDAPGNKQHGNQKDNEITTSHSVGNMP

Row | Binder | OD450 at 0.0001 nM antibody [OD450 nm] | OD450 at 0.001 nM antibody [OD450 nm] | OD450 at 0.01 nM antibody [OD450 nm] | OD450 at 0.1 nM antibody [OD450 nm] | OD450 at 1 nM antibody [OD450 nm] | OD450 at 10 nM antibody [OD450 nm] | OD450 at 100 nM antibody [OD450 nm]
1 | B1 | 0.05 | 0.05 | 0.07 | 0.34 | 0.4 | 0.7 | 0.6
2 | B2 | 0.05 | 0.06 | 0.07 | 0.13 | 0.2 | 0.79 | 0.65
3 | B3 | 0.05 | 0.06 | 0.06 | 0.58 | 0.41 | 0.86 | 0.52
4 | B4 | 0.05 | 0.07 | 0.16 | 0.72 | 0.76 | 0.8 | 0.54

Biological target: monkey GPC3 on HEK293T-monkey GPC3 cells (monkey)
Test: FACS on HEK293T-monkey GPC3 cells

Row | Binder | EC50 [nM] | Max MFI [MFI]
5 | B5 | 1.7 | 34600
6 | B6 | 14.8 | 37800
7 | B7 | 13.7 | 35900
8 | B8 | 13.6 | 37400

Biological target: monkey GPC3-His protein (monkey)
Test: ELISA, monkey GPC3-His coated; antibody 0.02 nM

Row | Binder | OD450 nm
9 | B5 | 0.911
10 | B6 | 0.707
11 | B7 | 0.252
12 | B8 | 0.368

Biological target: monkey GPC3-His protein (monkey)
Test: ELISA, monkey GPC3-His coated; antibody 0.11 nM

Row | Binder | OD450 nm
13 | B5 | 1.75
14 | B6 | 1.74
15 | B7 | 0.801
16 | B8 | 1.12

Biological target: monkey GPC3-His protein (monkey)
Test: ELISA, monkey GPC3-His coated; antibody 0.53 nM

Row | Binder | OD450 nm
17 | B5 | 2.1
18 | B6 | 2.31
19 | B7 | 1.95
20 | B8 | 2.17

Biological target: monkey GPC3-His protein (monkey)
Test: ELISA, monkey GPC3-His coated; antibody 2.67 nM

Row | Binder | OD450 nm
21 | B5 | 2.36
22 | B6 | 2.47
23 | B7 | 2.37
24 | B8 | 2.39

Biological target: monkey GPC3-His protein (monkey)
Test: ELISA, monkey GPC3-His coated; antibody 0.004 nM

Row | Binder | OD450 nm
25 | B5 | 0.294
26 | B6 | 0.253
27 | B7 | 0.103
28 | B8 | 0.198

Biological target: monkey GPC3-His protein (monkey)
Test: ELISA, monkey GPC3-His coated; antibody 13.33 nM

Row | Binder | OD450 nm
29 | B5 | 2.44
30 | B6 | 2.47
31 | B7 | 2.47
32 | B8 | 2.39

Biological target: monkey GPC3-His protein (monkey)
Test: ELISA, monkey GPC3-His coated; antibody 66.66 nM

Row | Binder | OD450 nm
33 | B5 | 2.52
34 | B6 | 2.57
35 | B7 | 2.58
36 | B8 | 2.55

Biological target: monkey GPC3-His protein (monkey)
Test: ELISA, monkey GPC3-His coated; antibody 0.0008 nM

Row | Binder | OD450 nm
37 | B5 | 0.116
38 | B6 | 0.101
39 | B7 | 0.069
40 | B8 | 0.079
